The source of these data is ChEMBL document CHEMBL4680222, “Sensitive fluorogenic substrates for sirtuin deacylase inhibitor discovery” (Eur J Med Chem, 2020).

The subject of series [1] is CC(=O)N[C@@H](CC(C)C)C(=O)NCC(=O)N[C@@H](CO)C(=O)N[C@@H](CCCCNC(=O)CCC(=O)O)C(=O)Nc1ccc2c(C)cc(=O)oc2c1. The series can be described thus: (§1) Substrate activity at human N-terminal His-tagged SIRT5 (34 to 302 residues) expressed in Escherichia coli assessed as Km measured after 1 hr in presence of NAD+ and trypsin by Michaelis-Menten kinetic model based fluorescence assay.

In series [2] the test system is CC(=O)N[C@@H](CO)C(=O)N[C@@H](CC(C)C)C(=O)NCC(=O)N[C@@H](CCCCNC(=O)CCC(=O)O)C(=O)Nc1ccc2c(C)cc(=O)oc2c1. The series is described as §1.
Series [3] concerns CC(=O)N[C@@H](Cc1cnc[nH]1)C(=O)N[C@@H](Cc1ccccc1)C(=O)N[C@@H](CO)C(=O)N[C@@H](CCCCNC(=O)CCC(=O)O)C(=O)Nc1ccc2c(C)cc(=O)oc2c1. The series is described as §1.
For series [4], the system named is Cc1cc(=O)oc2cc(NC(=O)[C@H](CCCCNC(=O)CCC(=O)O)NC(=O)OCc3ccccc3)ccc12. Described as §1.
Series [5] has as its system CC(=O)N[C@@H](CC(C)C)C(=O)NCC(=O)N[C@@H](CO)C(=O)N[C@@H](CCCCNC(=O)CCC(=O)O)C(=O)Nc1ccc2c(C)cc(=O)oc2c1. The series can be described thus: (§2) Substrate activity at human N-terminal His-tagged SIRT5 (34 to 302 residues) expressed in Escherichia coli assessed as Kcat measured after 1 hr in presence of NAD+ and trypsin by Michaelis-Menten kinetic model based fluorescence assay.

Series [6] has as its system CC(=O)N[C@@H](CO)C(=O)N[C@@H](CC(C)C)C(=O)NCC(=O)N[C@@H](CCCCNC(=O)CCC(=O)O)C(=O)Nc1ccc2c(C)cc(=O)oc2c1. The description is as §2.
In series [7] the test system is CC(=O)N[C@@H](Cc1cnc[nH]1)C(=O)N[C@@H](Cc1ccccc1)C(=O)N[C@@H](CO)C(=O)N[C@@H](CCCCNC(=O)CCC(=O)O)C(=O)Nc1ccc2c(C)cc(=O)oc2c1. Described as §2.
Series [8] has as its system Cc1cc(=O)oc2cc(NC(=O)[C@H](CCCCNC(=O)CCC(=O)O)NC(=O)OCc3ccccc3)ccc12. The description is as §2.
In series [9] the test system is CC(=O)N[C@@H](CC(C)C)C(=O)NCC(=O)N[C@@H](CO)C(=O)N[C@@H](CCCCNC(=O)CCC(=O)O)C(=O)Nc1ccc2c(C)cc(=O)oc2c1. Description: (§3) Substrate activity at human N-terminal His-tagged SIRT5 (34 to 302 residues) expressed in Escherichia coli assessed as Vmax measured after 1 hr in presence of NAD+ and trypsin by Michaelis-Menten kinetic model based fluorescence assay.
Series [10] relates to CC(=O)N[C@@H](CO)C(=O)N[C@@H](CC(C)C)C(=O)NCC(=O)N[C@@H](CCCCNC(=O)CCC(=O)O)C(=O)Nc1ccc2c(C)cc(=O)oc2c1. The series is described as §3.
Series [11] has as its system CC(=O)N[C@@H](Cc1cnc[nH]1)C(=O)N[C@@H](Cc1ccccc1)C(=O)N[C@@H](CO)C(=O)N[C@@H](CCCCNC(=O)CCC(=O)O)C(=O)Nc1ccc2c(C)cc(=O)oc2c1. The series is described as §3.
Series [12] relates to Cc1cc(=O)oc2cc(NC(=O)[C@H](CCCCNC(=O)CCC(=O)O)NC(=O)OCc3ccccc3)ccc12. The description is as §3.
Series [13] relates to CC(=O)N[C@@H](CC(C)C)C(=O)NCC(=O)N[C@@H](CO)C(=O)N[C@@H](CCCCNC(=O)CCC(=O)O)C(=O)Nc1ccc2c(C)cc(=O)oc2c1. The series can be described thus: (§4) Substrate activity at human N-terminal His-tagged SIRT5 (34 to 302 residues) expressed in Escherichia coli assessed as ratio of Kcat to Km measured after 1 hr in presence of NAD+ and trypsin by Michaelis-Menten kinetic model based fluorescence assay.

Series [14] relates to CC(=O)N[C@@H](CO)C(=O)N[C@@H](CC(C)C)C(=O)NCC(=O)N[C@@H](CCCCNC(=O)CCC(=O)O)C(=O)Nc1ccc2c(C)cc(=O)oc2c1. The series is described as §4.
Series [15] deals with CC(=O)N[C@@H](Cc1cnc[nH]1)C(=O)N[C@@H](Cc1ccccc1)C(=O)N[C@@H](CO)C(=O)N[C@@H](CCCCNC(=O)CCC(=O)O)C(=O)Nc1ccc2c(C)cc(=O)oc2c1. Described as §4.
Series [16] deals with Cc1cc(=O)oc2cc(NC(=O)[C@H](CCCCNC(=O)CCC(=O)O)NC(=O)OCc3ccccc3)ccc12. The series is described as §4.

NAD-dependent protein deacylase sirtuin-5, mitochondrial (Homo sapiens), Q9NXA8, sequence (Q9NXA8 whole entry): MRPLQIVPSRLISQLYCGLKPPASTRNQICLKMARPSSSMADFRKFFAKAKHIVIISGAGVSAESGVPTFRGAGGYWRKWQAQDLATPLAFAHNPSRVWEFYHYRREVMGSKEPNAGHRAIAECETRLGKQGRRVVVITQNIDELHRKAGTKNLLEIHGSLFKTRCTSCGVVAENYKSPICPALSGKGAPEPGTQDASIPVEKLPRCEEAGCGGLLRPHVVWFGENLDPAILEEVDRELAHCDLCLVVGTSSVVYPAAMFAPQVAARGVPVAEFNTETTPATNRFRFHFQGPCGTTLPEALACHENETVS

As usually defined, the Km is the substrate concentration at which the rate is half of its maximum. As a reminder, the kcat is the maximal rate divided by the concentration of active sites. The term Vmax denotes the rate approached at saturating substrate. The kcat/Km is the turnover number divided by the Michaelis constant. Turning to “NAD-dependent protein deacylase sirtuin-5, mitochondrial (Homo sapiens), Q9NXA8”, the Km was found to be 47.6 µM in [1], 31.6 µM in series [2], 57.5 µM in series [3] and 13.3 µM in series [4]. Moreover, the kcat is 38.8 10^-3/s in [5], 45.5 10^-3/s in series [6], 46.9 10^-3/s in series [7] and 2.6 10^-3/s in [8]. For the same substance, the Vmax was 116 nM/min in [9], 136 nM/min in series [10], 141 nM/min in [11] and 21.7 nM/min in [12]. Besides, the kcat/Km in series [13] turned out to be 817 M⁻¹ s⁻¹; in series [14], 1440 M⁻¹ s⁻¹; in [15], 815 M⁻¹ s⁻¹; in [16] it was 160 M⁻¹ s⁻¹.
